Laboratory results taken from publication PMC9482650, “Quantitative fragmentomics allow affinity mapping of interactomes” (Nature Communications, 2022).

T1: APBA1_1, Q02410
T1 sequence (Q02410 651-752, limits assumed, looked up): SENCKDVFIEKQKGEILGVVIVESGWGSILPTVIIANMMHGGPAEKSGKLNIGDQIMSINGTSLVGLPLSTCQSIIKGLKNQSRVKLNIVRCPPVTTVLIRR

T2: APBA1_2, Q02410
T2 sequence (Q02410 742-832, limits assumed, looked up): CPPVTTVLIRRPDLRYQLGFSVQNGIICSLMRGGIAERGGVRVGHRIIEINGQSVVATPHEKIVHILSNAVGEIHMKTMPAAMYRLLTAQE

T3: DVL3, Q92997
T3 sequence (Q92997 244-331, limits assumed, looked up): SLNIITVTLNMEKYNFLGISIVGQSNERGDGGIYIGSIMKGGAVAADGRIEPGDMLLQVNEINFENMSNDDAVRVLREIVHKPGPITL

T4: GRIP1_5, Q9Y3R0
T4 sequence (Q9Y3R0 568-668, limits assumed, looked up): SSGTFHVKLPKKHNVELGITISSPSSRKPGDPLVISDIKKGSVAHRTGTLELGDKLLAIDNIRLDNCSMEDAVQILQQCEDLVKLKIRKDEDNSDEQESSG

T5: LIN7C, Q9NUP9
T5 sequence (Q9NUP9 88-185, limits assumed, looked up): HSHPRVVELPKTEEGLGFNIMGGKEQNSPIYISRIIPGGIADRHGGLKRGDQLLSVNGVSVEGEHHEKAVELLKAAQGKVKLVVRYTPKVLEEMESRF

T6: LNX2_3, Q8N448
T6 sequence (Q8N448 463-564, limits assumed, looked up): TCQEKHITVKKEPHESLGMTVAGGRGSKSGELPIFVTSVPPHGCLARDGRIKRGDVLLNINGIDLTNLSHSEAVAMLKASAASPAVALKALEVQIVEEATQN

T7: MPDZ_12, O75970
T7 sequence (O75970 1857-1958, limits assumed, looked up): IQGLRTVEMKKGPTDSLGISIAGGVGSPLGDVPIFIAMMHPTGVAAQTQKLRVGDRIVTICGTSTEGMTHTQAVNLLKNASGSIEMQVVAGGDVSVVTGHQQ

T8: NHERF3_4, Q5T2W1
T8 sequence (Q5T2W1 373-468, limits assumed, looked up): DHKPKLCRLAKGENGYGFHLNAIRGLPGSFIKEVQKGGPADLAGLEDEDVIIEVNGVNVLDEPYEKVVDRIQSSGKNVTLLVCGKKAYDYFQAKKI

T9: PDZD2_2, O15018
T9 sequence (O15018 329-429, limits assumed, looked up): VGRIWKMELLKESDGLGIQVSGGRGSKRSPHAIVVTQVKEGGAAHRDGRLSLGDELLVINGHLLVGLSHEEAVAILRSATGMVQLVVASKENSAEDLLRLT

T10: SNTG1, Q9NSN8
T10 sequence (Q9NSN8 52-150, limits assumed, looked up): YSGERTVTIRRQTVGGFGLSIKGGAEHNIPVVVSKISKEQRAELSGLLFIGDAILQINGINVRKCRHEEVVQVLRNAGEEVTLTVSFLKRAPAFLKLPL

T11: SNTG2, Q9NY99
T11 sequence (Q9NY99 68-166, limits assumed, looked up): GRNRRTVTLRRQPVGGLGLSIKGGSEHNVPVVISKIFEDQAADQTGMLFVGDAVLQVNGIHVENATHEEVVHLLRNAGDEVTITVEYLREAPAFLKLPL


How the values were obtained:
Test in all cases: holdup assay
Design in all cases: key: below the threshold = too weak to quantify, mostly under pKd 3.1 to 4
Settings in all cases: plain residues with an end cap or a label only (N-terminal biotin on a linker: ado-ado)
[1] = target: T1, APBA1_1, Q02410
[2] = target: T2, APBA1_2, Q02410
[3] = target: DLG1_1, Q12959
[4] = target: DLG4_1, P78352
[5] = target: DLG4_3, P78352
[6] = target: T3, DVL3, Q92997
[7] = target: FRMPD2_1, Q68DX3
[8] = target: GIPC2, Q8TF65
[9] = target: GORASP2, Q9H8Y8
[10] = target: T4, GRIP1_5, Q9Y3R0
[11] = target: GRIP2_4, Q9C0E4
[12] = target: GRIP2_7, Q9C0E4
[13] = target: IL16_3, Q14005
[14] = target: Inadl_10, Q8NI35
[15] = target: Inadl_8, Q8NI35
[16] = target: LIMK2, P53671
[17] = target: T5, LIN7C, Q9NUP9
[18] = target: T6, LNX2_3, Q8N448
[19] = target: MAST2, Q6P0Q8
[20] = target: T7, MPDZ_12, O75970
[21] = target: T8, NHERF3_4, Q5T2W1
[22] = target: NHERF4_4, Q86UT5
[23] = target: T9, PDZD2_2, O15018
[24] = target: PTPN3, P26045
[25] = target: SCRIB_2, Q14160
[26] = target: T10, SNTG1, Q9NSN8
[27] = target: T11, SNTG2, Q9NY99

Chain of Inadl_8, Q8NI35 (Q8NI35 1425-1530): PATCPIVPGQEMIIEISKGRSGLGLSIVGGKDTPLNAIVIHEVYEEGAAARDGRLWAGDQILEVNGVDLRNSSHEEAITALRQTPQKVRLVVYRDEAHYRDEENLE
Chain of FRMPD2_1, Q68DX3 (Q68DX3 770-861): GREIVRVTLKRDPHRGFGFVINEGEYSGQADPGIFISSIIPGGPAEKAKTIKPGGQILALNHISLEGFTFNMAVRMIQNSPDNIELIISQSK
Chain of LIMK2, P53671 (P53671 143-248): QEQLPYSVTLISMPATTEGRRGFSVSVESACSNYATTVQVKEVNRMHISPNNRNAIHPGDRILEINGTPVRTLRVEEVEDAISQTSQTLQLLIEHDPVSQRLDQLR
Chain of PTPN3, P26045 (P26045 505-587): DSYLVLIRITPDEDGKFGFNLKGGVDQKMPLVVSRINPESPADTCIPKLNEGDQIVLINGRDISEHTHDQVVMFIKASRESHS
Chain of MAST2, Q6P0Q8 (Q6P0Q8 1099-1202): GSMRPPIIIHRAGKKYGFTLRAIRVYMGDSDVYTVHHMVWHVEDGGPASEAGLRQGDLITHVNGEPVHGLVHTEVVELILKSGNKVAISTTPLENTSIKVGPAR
Chain of GIPC2, Q8TF65 (Q8TF65 112-203): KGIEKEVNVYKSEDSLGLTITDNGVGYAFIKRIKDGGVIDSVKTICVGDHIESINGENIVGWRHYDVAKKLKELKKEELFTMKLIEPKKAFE
Chain of IL16_3, Q14005 (Q14005 1107-1207): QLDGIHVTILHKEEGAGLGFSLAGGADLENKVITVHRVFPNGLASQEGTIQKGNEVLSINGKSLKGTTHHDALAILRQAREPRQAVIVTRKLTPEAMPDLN
Chain of DLG4_1, P78352 (P78352 62-152): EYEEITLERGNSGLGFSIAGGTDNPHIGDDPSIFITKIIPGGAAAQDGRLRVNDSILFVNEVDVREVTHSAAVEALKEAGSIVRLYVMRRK
Chain of GRIP2_4, Q9C0E4 (Q9C0E4 446-548): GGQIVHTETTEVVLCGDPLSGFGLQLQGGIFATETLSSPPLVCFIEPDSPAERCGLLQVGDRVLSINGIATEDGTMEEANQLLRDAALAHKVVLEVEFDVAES
Chain of Inadl_10, Q8NI35 (Q8NI35 1673-1763): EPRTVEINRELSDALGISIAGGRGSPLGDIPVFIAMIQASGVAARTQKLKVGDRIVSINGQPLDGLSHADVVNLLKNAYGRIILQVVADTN
Chain of DLG4_3, P78352 (P78352 306-403): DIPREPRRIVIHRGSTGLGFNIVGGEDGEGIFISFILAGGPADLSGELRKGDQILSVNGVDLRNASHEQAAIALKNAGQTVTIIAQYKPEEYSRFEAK
Chain of NHERF4_4, Q86UT5 (Q86UT5 464-550): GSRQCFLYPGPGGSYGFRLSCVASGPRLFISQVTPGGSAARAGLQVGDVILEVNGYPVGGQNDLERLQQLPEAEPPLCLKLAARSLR
Chain of SCRIB_2, Q14160 (Q14160 857-960): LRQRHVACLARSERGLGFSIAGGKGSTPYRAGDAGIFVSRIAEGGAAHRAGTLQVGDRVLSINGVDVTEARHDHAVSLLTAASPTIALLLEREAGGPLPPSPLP
Chain of GRIP2_7, Q9C0E4 (Q9C0E4 934-1023): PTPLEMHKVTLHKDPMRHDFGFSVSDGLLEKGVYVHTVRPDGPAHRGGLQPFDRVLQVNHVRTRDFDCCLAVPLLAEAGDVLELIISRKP

| Binder | pKd [1] | pKd [2] | pKd [3] | pKd [4] | pKd [5] | pKd [6] | pKd [7] | pKd [8] | pKd [9] | pKd [10] | pKd [11] | pKd [12] | pKd [13] | pKd [14] | pKd [15] | pKd [16] | pKd [17] | pKd [18] | pKd [19] | pKd [26] | other results |
| --- | --- | --- | --- | --- | --- | --- | --- | --- | --- | --- | --- | --- | --- | --- | --- | --- | --- | --- | --- | --- | --- |
| KRPEMTSSSV [MUC3A, MUC3B, Q02505;Q9H195] | below the threshold | 1.83 | 1.76 | below the threshold | 1.91 | below the threshold |  | 3.73 | below the threshold | below the threshold | below the threshold | below the threshold | below the threshold | below the threshold |  |  |  | below the threshold | 4.77 | 4.08 |  |
| DTKNYKQTSV [CRIPT, Q9P021] | below the threshold | 3.73 | 4.35 | 4.37 | 5.39 | below the threshold | below the threshold | below the threshold | below the threshold | below the threshold | below the threshold | below the threshold | below the threshold | below the threshold | 4.66 | below the threshold | 3.5 | below the threshold | 5.35 | 4.12 | pKd [20]: below the threshold; pKd [21]: 3.56; pKd [22]: below the threshold; pKd [23]: 4.76; pKd [24]: 5.07; pKd [25]: 4.61; pKd [27]: 4.37 |
| IDESKKEWLI [CNTNAP2, Q9UHC6] | below the threshold | below the threshold | below the threshold | below the threshold | below the threshold | 3.85 | below the threshold | below the threshold | 3.94 | below the threshold | below the threshold | 4.45 | below the threshold | below the threshold | below the threshold | below the threshold | below the threshold | below the threshold | below the threshold | below the threshold | pKd [20]: below the threshold; pKd [21]: below the threshold; pKd [22]: below the threshold; pKd [23]: 4.54; pKd [24]: 4.07; pKd [25]: below the threshold; pKd [27]: below the threshold |

Now from value to binder, other results behind:

| pKd [1] | pKd [2] | pKd [3] | pKd [4] | pKd [5] | pKd [6] | pKd [7] | pKd [8] | pKd [9] | pKd [10] | pKd [11] | pKd [12] | pKd [13] | pKd [14] | pKd [15] | pKd [16] | pKd [17] | pKd [18] | pKd [19] | pKd [26] | Binder | other results |
| --- | --- | --- | --- | --- | --- | --- | --- | --- | --- | --- | --- | --- | --- | --- | --- | --- | --- | --- | --- | --- | --- |
| below the threshold | below the threshold | below the threshold | below the threshold | below the threshold | below the threshold | below the threshold | below the threshold | below the threshold | below the threshold | below the threshold | below the threshold | below the threshold | below the threshold | below the threshold | below the threshold | below the threshold | below the threshold | 4.46 | below the threshold | SRSVVESDEL [MYPN, Q86TC9] | pKd [20]: below the threshold; pKd [21]: below the threshold; pKd [22]: below the threshold; pKd [23]: below the threshold; pKd [24]: 3.99; pKd [25]: below the threshold; pKd [27]: below the threshold |
| below the threshold | 3.56 | below the threshold | below the threshold | below the threshold | below the threshold | below the threshold | below the threshold | below the threshold | below the threshold | below the threshold | below the threshold | below the threshold | below the threshold | below the threshold | below the threshold | below the threshold | below the threshold | 5.05 | below the threshold | PSVGSKKTVL [REELD1, A0A1B0GV85] | pKd [20]: below the threshold; pKd [21]: 3.87; pKd [22]: below the threshold; pKd [23]: 3.52; pKd [24]: 3.64; pKd [25]: below the threshold; pKd [27]: 3.66 |
| below the threshold |  | below the threshold |  |  |  | below the threshold |  |  |  |  | below the threshold | below the threshold | below the threshold | below the threshold | below the threshold | below the threshold | below the threshold | 4.97 | below the threshold | KSRVAFFEEL [NF2, P35240;P35240-1] | pKd [20]: below the threshold; pKd [22]: below the threshold; pKd [24]: 4.22; pKd [25]: below the threshold |
